According to the supplement of paper PMC9112550, “Optimization of the antimicrobial peptide Bac7 by deep mutational scanning” (BMC Biology, 2022):

Tested on: Escherichia coli TOP10
Experiment: shrunken log2 fold change of peptide-encoding DNA abundance (4.5 h post-induction vs induction); higher = less antimicrobial activity (less host growth inhibition)
Conditions: time post-induction: 4.5 h; library: site-saturation at positions 5, 18, 19, 20
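Further: peptides expressed intracellularly from a pBAD plasmid library in pooled LB shake-flask culture, induced with 0.3% L-arabinose, DNA abundance read by NGS, three biological replicates, DESeq2 with apeglm shrinkage.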

Sequence	shrunken log2 fold change
RRIRYRPPRLPRPRPRPFFAPRP	-0.18
RRIRYRPPRLPRPRPRPLQKPRP	-0.0364
RRIRNRPPRLPRPRPRPKEGPRP	-0.0345
RRIRVRPPRLPRPRPRPWSQPRP	-0.219
RRIRLRPPRLPRPRPRPEVAPRP	0.475
RRIRERPPRLPRPRPRPIDNPRP	-0.108
RRIRTRPPRLPRPRPRPSGIPRP	-0.0172
RRIRERPPRLPRPRPRPIGFPRP	-0.134
RRIRRRPPRLPRPRPRPGWYPRP	0.205
RRIRFRPPRLPRPRPRPPAHPRP	0.613
RRIRYRPPRLPRPRPRPNPYPRP	-0.0428
RRIRPRPPRLPRPRPRPRQDPRP	0.351
RRIRPRPPRLPRPRPRPYWRPRP	-0.106
RRIRIRPPRLPRPRPRPDMLPRP	-0.618
RRIRPRPPRLPRPRPRPNRWPRP	0.106
RRIRLRPPRLPRPRPRPWCKPRP	-0.213
RRIRARPPRLPRPRPRPLEPPRP	0.451
RRIRKRPPRLPRPRPRPFWAPRP	0.659
RRIRKRPPRLPRPRPRPWYTPRP	-0.177
RRIRHRPPRLPRPRPRPAAFPRP	0.068
RRIRRRPPRLPRPRPRPHKTPRP	0.107
RRIRQRPPRLPRPRPRPILSPRP	0.0165
RRIRRRPPRLPRPRPRPGKKPRP	0.0542

Sequence	shrunken log2 fold change
RRIRTRPPRLPRPRPRPINVPRP	-0.509
RRIRMRPPRLPRPRPRPYQNPRP	0.0826
RRIRRRPPRLPRPRPRPDESPRP	0.037
RRIRDRPPRLPRPRPRPDIDPRP	-0.012
RRIRARPPRLPRPRPRPGDCPRP	0.366
RRIRHRPPRLPRPRPRPQTLPRP	-0.313
RRIRPRPPRLPRPRPRPMYIPRP	-0.0479
RRIRIRPPRLPRPRPRPLPEPRP	0.0361
RRIRVRPPRLPRPRPRPCMSPRP	-0.0664
RRIRKRPPRLPRPRPRPEGIPRP	-0.0332
RRIRFRPPRLPRPRPRPDSMPRP	-0.715
RRIRSRPPRLPRPRPRPTELPRP	-0.0967
RRIRCRPPRLPRPRPRPWCFPRP	-0.712
RRIRCRPPRLPRPRPRPDLQPRP	-0.00569
RRIRYRPPRLPRPRPRPRTMPRP	-1.72
RRIRHRPPRLPRPRPRPRSTPRP	-0.00721
RRIRPRPPRLPRPRPRPRIIPRP	-0.18
RRIRRRPPRLPRPRPRPTNHPRP	-0.0627
RRIRFRPPRLPRPRPRPDHCPRP	-0.0831
RRIRTRPPRLPRPRPRPWWTPRP	-0.045
RRIRWRPPRLPRPRPRPARDPRP	0.377
RRIRPRPPRLPRPRPRPFCFPRP	0.337
RRIRIRPPRLPRPRPRPVYCPRP	-0.127

Sequence	shrunken log2 fold change
RRIRKRPPRLPRPRPRPYGQPRP	-0.306
RRIRVRPPRLPRPRPRPTRFPRP	0.0403
RRIRMRPPRLPRPRPRPYDQPRP	0.102
RRIRRRPPRLPRPRPRPTCTPRP	0.165
RRIRDRPPRLPRPRPRPAMCPRP	0.531
RRIRGRPPRLPRPRPRPHVEPRP	0.36
RRIRRRPPRLPRPRPRPRFYPRP	-0.237
RRIRDRPPRLPRPRPRPCTFPRP	-0.0767
RRIRCRPPRLPRPRPRPCWLPRP	-0.0409
RRIRFRPPRLPRPRPRPVKNPRP	-0.0401
RRIRRRPPRLPRPRPRPLYYPRP	-0.259
RRIRDRPPRLPRPRPRPYADPRP	-0.155
RRIRDRPPRLPRPRPRPPINPRP	-0.205
RRIRSRPPRLPRPRPRPHENPRP	0.0415
RRIRVRPPRLPRPRPRPMCGPRP	0.0281
RRIRMRPPRLPRPRPRPPSQPRP	1.18
RRIRDRPPRLPRPRPRPEARPRP	1.96
RRIRNRPPRLPRPRPRPNCQPRP	-0.182
RRIRRRPPRLPRPRPRPLDGPRP	0.0894
RRIRYRPPRLPRPRPRPMYLPRP	-0.0959
RRIRYRPPRLPRPRPRPCIHPRP	-0.0152
RRIRFRPPRLPRPRPRPGSPPRP	0.206
RRIRKRPPRLPRPRPRPDADPRP	0.163

Sequence	shrunken log2 fold change
RRIRKRPPRLPRPRPRPRWKPRP	0.702
RRIRMRPPRLPRPRPRPIATPRP	-0.0165
RRIRRRPPRLPRPRPRPVNHPRP	0.177
RRIRSRPPRLPRPRPRPFRLPRP	-0.793
RRIRTRPPRLPRPRPRPMYDPRP	-0.161
RRIRERPPRLPRPRPRPLTWPRP	3.04
RRIRYRPPRLPRPRPRPRFAPRP	-0.152
RRIRHRPPRLPRPRPRPPHGPRP	0.389
RRIRKRPPRLPRPRPRPDPLPRP	0.282
RRIRHRPPRLPRPRPRPVMNPRP	-0.0175
RRIRRRPPRLPRPRPRPSNHPRP	-0.396
RRIRPRPPRLPRPRPRPTQMPRP	0.395
RRIRRRPPRLPRPRPRPLSAPRP	0.444
RRIRARPPRLPRPRPRPIEMPRP	0.563
RRIRRRPPRLPRPRPRPHRPPRP	0.203
RRIRERPPRLPRPRPRPFKDPRP	-0.0062
RRIRVRPPRLPRPRPRPDQVPRP	-0.202
RRIRLRPPRLPRPRPRPDREPRP	0.0246
RRIRNRPPRLPRPRPRPQIIPRP	-0.106
RRIRGRPPRLPRPRPRPHYMPRP	0.00569
RRIRERPPRLPRPRPRPPNGPRP	0.203
RRIRPRPPRLPRPRPRPNSRPRP	-0.1
